These are literature values, as cited in article PMC3460238.

Data set [1] has as its target C3b (Homo sapiens) (UniProt P01024).
The target is the same in data set [2]. The source holds these as a separate data set.

Like-named read-outs stand apart in the source and are kept apart here.

Chain of C3b (Homo sapiens) (P01024 23-667, chain 1 of 2): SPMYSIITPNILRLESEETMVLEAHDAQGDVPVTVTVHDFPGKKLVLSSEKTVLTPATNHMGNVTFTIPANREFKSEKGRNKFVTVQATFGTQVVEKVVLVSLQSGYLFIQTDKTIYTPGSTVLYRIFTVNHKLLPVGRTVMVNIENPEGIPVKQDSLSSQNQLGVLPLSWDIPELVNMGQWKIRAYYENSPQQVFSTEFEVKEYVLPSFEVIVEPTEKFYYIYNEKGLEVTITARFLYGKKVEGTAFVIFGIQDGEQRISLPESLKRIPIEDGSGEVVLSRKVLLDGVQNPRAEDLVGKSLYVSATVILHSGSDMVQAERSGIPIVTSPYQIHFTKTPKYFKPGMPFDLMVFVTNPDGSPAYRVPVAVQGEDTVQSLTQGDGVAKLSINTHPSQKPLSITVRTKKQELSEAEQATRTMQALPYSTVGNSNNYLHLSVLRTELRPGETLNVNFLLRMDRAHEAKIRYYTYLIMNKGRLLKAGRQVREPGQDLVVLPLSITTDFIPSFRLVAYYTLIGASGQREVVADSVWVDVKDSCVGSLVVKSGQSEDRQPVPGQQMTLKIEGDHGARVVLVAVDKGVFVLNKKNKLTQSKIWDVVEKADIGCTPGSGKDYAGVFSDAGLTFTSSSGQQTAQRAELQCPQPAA
Chain of C3b (Homo sapiens) (P01024 749-1663, chain 2 of 2): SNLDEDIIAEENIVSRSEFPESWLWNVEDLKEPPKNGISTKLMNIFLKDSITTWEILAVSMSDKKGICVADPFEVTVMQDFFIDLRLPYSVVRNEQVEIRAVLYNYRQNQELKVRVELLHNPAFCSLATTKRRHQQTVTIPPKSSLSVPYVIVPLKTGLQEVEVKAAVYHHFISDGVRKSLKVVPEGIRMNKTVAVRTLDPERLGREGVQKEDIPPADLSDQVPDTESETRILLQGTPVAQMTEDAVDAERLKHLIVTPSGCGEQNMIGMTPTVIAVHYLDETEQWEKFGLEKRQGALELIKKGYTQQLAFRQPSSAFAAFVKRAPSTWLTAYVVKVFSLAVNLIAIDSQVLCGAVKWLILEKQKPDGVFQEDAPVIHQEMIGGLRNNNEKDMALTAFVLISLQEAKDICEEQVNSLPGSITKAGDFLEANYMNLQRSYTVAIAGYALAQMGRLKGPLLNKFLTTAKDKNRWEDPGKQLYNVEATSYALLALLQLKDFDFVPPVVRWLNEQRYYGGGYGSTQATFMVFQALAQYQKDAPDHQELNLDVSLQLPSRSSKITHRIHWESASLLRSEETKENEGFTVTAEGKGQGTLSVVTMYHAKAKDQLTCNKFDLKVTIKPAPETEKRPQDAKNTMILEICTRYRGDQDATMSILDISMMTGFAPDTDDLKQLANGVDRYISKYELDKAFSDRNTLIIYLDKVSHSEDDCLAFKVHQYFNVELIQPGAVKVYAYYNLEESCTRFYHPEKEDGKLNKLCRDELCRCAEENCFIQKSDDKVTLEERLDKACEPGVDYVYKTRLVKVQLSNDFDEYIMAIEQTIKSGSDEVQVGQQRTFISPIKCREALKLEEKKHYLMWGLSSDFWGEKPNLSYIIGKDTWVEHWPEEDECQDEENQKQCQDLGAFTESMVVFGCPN
Chain of Factor H (62V) (P08603 19-1231): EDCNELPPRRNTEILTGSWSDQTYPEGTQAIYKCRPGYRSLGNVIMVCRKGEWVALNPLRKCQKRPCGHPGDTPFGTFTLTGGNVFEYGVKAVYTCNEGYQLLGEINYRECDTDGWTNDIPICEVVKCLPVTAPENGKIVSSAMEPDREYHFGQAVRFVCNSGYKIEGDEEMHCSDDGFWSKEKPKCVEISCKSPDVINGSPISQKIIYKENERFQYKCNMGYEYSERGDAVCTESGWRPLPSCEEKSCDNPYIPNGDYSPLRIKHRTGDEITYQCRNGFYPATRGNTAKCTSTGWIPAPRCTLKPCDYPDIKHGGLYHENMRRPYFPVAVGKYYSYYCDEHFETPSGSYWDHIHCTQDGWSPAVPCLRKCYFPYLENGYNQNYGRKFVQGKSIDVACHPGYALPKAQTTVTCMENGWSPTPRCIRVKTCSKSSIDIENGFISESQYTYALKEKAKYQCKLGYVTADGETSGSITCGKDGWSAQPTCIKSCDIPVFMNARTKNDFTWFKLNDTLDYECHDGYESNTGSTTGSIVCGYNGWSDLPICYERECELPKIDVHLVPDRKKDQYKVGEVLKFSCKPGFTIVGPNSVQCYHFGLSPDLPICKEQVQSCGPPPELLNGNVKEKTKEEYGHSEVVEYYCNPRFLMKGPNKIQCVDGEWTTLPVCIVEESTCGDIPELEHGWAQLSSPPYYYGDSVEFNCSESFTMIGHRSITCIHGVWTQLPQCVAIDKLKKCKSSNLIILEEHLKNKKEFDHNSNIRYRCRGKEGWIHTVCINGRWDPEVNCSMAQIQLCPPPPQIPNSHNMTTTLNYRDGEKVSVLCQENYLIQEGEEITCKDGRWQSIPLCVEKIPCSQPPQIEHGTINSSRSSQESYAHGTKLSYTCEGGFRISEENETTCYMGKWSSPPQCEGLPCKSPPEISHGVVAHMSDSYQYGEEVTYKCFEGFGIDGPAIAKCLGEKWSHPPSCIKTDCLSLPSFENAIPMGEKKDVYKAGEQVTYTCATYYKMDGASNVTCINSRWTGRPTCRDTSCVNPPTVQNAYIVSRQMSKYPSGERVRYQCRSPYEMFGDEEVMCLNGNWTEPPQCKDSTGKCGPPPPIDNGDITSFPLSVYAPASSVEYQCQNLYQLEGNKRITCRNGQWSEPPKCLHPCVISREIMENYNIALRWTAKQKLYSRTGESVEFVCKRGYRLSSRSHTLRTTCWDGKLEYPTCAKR

In general, Kd refers to the equilibrium constant for the complex coming apart. Turning to Factor H (62V) (from UniProt P08603), the Kd with C3b (Homo sapiens) [1] was 1300 nM.

In the case of Factor H (62I) (from UniProt P08603), the Kd in the data set with C3b (Homo sapiens) [2] is 1000 nM.
